These results are taken from article PMC12599920.

For the test, the target named is Mushroom body defect coiled-coil domain (Mud^CC). Kind of test: saturation binding (MBP pull-down, gel quantification). The settings on record: read off a plot.
The mark [1] stands for this setting: right plot, 20 µM MudCC, parent: est. 130.

Turning to “3OCR_ΔCT, P. syringae aldolase enzyme with the CThelix deleted FLEaaa”, the response by setting is: (10 µM MudCC, parent: est. 110) 27 AU; (20 µM MudCC, parent: est. 140) 46 AU; (40 µM MudCC, parent: est. 140) 57 AU.

As to “MBP:Hts (110-310), CThelix truncation of the Hts aldolase domain (from UniProt Q02645) H164A; T167A”, the response runs as follows: (left plot, 5 µM MudCC, parent: est. 110) 100 AU; (left plot, 20 µM MudCC, parent: est. 130) 120 AU.

Regarding “MBP:Hts (110-310), CThelix truncation of the Hts aldolase domain (from UniProt Q02645) L139A”, the response by setting is: (right plot, 5 µM MudCC, parent: est. 110) 38 AU; (right plot, 10 µM MudCC, parent: est. 120) 86 AU; under setting [1], 140 AU.

With “MBP:Hts (110-310), CThelix truncation of the Hts aldolase domain (from UniProt Q02645) R128A”, the response by setting is: (right plot, 5 µM MudCC, parent: est. 99) 120 AU; under setting [1], 140 AU.

Consider “MBP:Hts (110-310), CThelix truncation of the Hts aldolase domain (from UniProt Q02645) Y159A; L162A; E165A”, for which the response turned out to be 1 AU (left plot, 5 µM MudCC, parent: est. 83) and 5 AU (left plot, 20 µM MudCC, parent: est. 110).

“MBP:Hts (110-401), full-length Hts aldolase domain (from UniProt Q02645) D310A”: the response is, setting by setting: (5 µM MudCC, parent: est. 98) 130 AU; (20 µM MudCC, parent: est. 140) 150 AU.

On to “MBP:Hts (110-401), full-length Hts aldolase domain (from UniProt Q02645) Q151A; E152A”, for which the response runs as follows: (5 µM MudCC, parent: est. 98) 93 AU; (20 µM MudCC, parent: est. 140) 150 AU.

As to “MBP:Hts (110-401), full-length Hts aldolase domain (from UniProt Q02645) Q177A; V181A”, the response runs as follows: (5 µM MudCC, parent: est. 98) 110 AU; (20 µM MudCC, parent: est. 140) 150 AU.

“MBP:Hts (110-401), full-length Hts aldolase domain (from UniProt Q02645) R205A; D207A”: the response reads like this: (5 µM MudCC, parent: est. 98) 120 AU; (20 µM MudCC, parent: est. 140) 140 AU.

As to “MBP:Hts (110-401), full-length Hts aldolase domain (from UniProt Q02645) Y159A; L162A; E165A”, the response (left plot, 5 µM MudCC, parent: est. 120) was 7 AU and the response (left plot, 20 µM MudCC, parent: est. 140) was found to be 24 AU.
